Measured values reported in publication PMC2726290, “Decoding of Methylated Histone H3 Tail by the Pygo-BCL9 Wnt Signaling Complex” (Molecular Cell, 2008).

Experiments:
[1] = biological target: T1, hPHD-HD1 complex (hPygo1 PHD 333-402 with hBCL9 HD1) (human, UniProt Q9Y3Y4 333-402; O00512 177-205); assay: ITC; protein dialysed into 100 mM NaCl, 25 mM Tris-HCl (pH 8.0), 10 uM ZnCl2, 2 mM beta-mercaptoethanol; histone peptides with free PHD or PHD-HD1 complex; one-site model; details: both partners purified
T1 construct: PHD finger of human Pygo1, amino acids 333-402; also called binary complex; human PHD-HD1 complex; source: E. coli BL21-CodonPlus(DE3)-RIL, coexpressed from a bicistronic vector, purified as a complex; not shown: GST, N-terminal, cleaved; MBP, N-terminal, cleaved
T1 sequence (looked up) 1: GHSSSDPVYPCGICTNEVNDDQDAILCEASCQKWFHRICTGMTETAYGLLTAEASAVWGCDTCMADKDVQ
T1 sequence (looked up) 2: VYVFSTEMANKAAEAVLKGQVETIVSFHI

hPygo1 PHD finger E349A = biological target: T2, hPygo1 PHD finger E349A (human, UniProt Q9Y3Y4 333-402, E349A); assay: as above; details: both partners purified
T2 construct: PHD finger of human Pygo1 with E349A; source: E. coli, purified; not shown: GST, N-terminal, cleaved
T2 sequence (looked up): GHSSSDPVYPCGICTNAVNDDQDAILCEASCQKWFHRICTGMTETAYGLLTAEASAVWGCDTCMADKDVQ

Row | Binder | Kd [1] [µM] | Kd (hPygo1 PHD finger E349A) [µM]
1 | ARTKQTARK (peptide, UniProt P68431 2-10, looked up, dimethyl-lysine at K4, histone H3 tail, 9-mer; the limits follow from the truncated form 'spanning R2-K9 (without A1)'; Only the first seven residues are modelled in the structure; also called 9-mer H3K4me2 peptide) [H3K4me2 9-mer histone H3 tail peptide] | 11 | 
2 | ARTKQTARKSTGGKAPRK (peptide, UniProt P68431 2-19, looked up, asymmetric dimethyl-arginine at R2 (R2me2a); dimethyl-lysine at K4, histone H3 tail, 18-mer; Only the first seven residues are modelled in the structure; also called 18-mer histone H3 tail carrying both K4me2 and asymmetrically methylated R2 (R2me2a)) [H3R2me2aK4me2 18-mer histone H3 tail peptide] | 2.1 | 
3 | ARTKQTARKSTGGKA (peptide, UniProt P68431 2-16, looked up, trimethyl-lysine at K4, histone H3 tail, 15-mer) [H3K4me3 15-mer histone H3 tail peptide] |  | 22
